# No end group written: not given here.
# T1: 6×His标签 (组氨酸标签) (also: coupled to ovalbumin carrier, site not given here)
# T1 construct: also called 多组氨酸标签; hexa组氨酸标签
# T1 peptide: HHHHHH
# B1: 针对His标签的单域重链抗体 (特异性识别组氨酸标签的纳米抗体) (VHH)
# VHH: QVQLVESGGGLVQPGQSLRLSCSAPGFTFNNFGLAWFRQAPGKEREEVACIRSHGVRTHYGASVEGRFTISRDSDNKALWLQMNDLKPEDSAVYYCAADPVPANFDTCVHNGYDYWGLGTQVTVSS
# notes: also called 抗His标签单域重链抗体
# Target: T1, 6×His标签 (组氨酸标签)
# Assay: indirect phage-ELISA of phage-displayed clones after three rounds of solid-phase panning on 6×His-OVA
binder,measurement,value
B1,binding result,binds
